{"source": "paper PMC6821830", "target": "TopBP1 BRCT1-6 (UniProt Q92547)", "assay": "GST-TopBP1 pull-down from cell extract, blot", "conditions": "reference: wild-type MEFs, IR-treated; sites S29"}
{"substance": "E2F1 (mouse) (from UniProt Q61501) E2f1 S29A knock-in MEFs, IR-treated", "values": [{"measurement": "binding against the reference", "result": "lost"}]}
